According to patent US20160002338A1 (Hoffmann-La Roche, published 2016):

Columns and labels:
TtSlyD-FKBP-Her3 = target: T1, TtSlyD-FKBP-Her3; assay: SPR Biacore 3000, antibody captured, 25 C
T1 construct: 15 kDa; N-terminal Met may be present or not; also called Thermus thermophilus SlyD FKBP-Her3; thermo SlyD-Her3
T1 chain: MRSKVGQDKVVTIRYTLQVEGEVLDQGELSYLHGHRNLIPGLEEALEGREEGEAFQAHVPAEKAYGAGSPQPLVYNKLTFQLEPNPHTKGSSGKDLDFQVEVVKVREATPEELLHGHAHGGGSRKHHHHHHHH
Protocol: (§1) A CM5 series sensor was mounted into the system and was normalized in HBS-ET buffer (10 mM HEPES pH 7.4, 150 mM NaCl, 3 mM EDTA, 0.005% w/v Tween 20) according to the manufacturer's instructions. The sample buffer was the system buffer supplemented with 1 mg/ml CMD (Carboxymethyldextran). The system operated at 25° C. 10000 RU RAM-Fcγ(relative units of Fcγ-fragment Rabbit Anti-Mouse IgG/Jackson Laboratories) were immobilized according to the manufacturer's instructions using EDC/NHS chemistry on all flow cells. The sensor was deactivated using 1M ethanolamine. Analytes in solution were injected at 100 μl/min at different concentration steps of 0 nM, 1.1 nM, 3.7 nM, 11.1 nM, 33.1 nM and 90 nM for 2 min. The dissociation was monitored for 5 min. Acidic regeneration of the sensor surface was achieved using three consecutive injections of 10 mM Glycine pH 1.7 at 30 μl/min for 60 sec. Kinetic data were evaluated according to a Langmuir fit.

HER3 ECD-HRG complex [1] = target: T2, HER3 ECD-HRG complex (human, UniProt P21860 20-643); assay: SPR Biacore 3000, antibody captured, 25 C
T2 construct: also called Heregulin/Her-3 ECD
T2 sequence (P21860 20-643 limits assumed, one chain of several): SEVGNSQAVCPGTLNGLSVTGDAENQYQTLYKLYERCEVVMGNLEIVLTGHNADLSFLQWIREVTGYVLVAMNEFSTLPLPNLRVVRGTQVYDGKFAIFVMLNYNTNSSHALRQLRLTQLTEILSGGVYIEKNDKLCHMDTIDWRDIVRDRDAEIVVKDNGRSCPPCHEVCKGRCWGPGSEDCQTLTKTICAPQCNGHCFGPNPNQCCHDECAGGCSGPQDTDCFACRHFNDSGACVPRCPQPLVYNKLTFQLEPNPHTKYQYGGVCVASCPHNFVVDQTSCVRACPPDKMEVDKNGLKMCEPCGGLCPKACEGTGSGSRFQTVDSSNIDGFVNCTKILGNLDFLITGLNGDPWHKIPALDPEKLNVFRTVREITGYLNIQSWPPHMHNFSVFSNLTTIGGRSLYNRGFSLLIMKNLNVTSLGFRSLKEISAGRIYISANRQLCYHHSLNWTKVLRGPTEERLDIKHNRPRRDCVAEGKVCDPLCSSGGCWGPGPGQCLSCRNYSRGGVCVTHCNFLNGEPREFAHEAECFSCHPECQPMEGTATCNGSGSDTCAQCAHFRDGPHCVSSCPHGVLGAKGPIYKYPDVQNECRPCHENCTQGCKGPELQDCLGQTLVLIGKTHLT
Protocol: as §1

[2] = target: T3, human recombinant HER3 ECD (human, UniProt P21860 20-643); assay: SPR Biacore 3000, antibody captured, 25 C
T3 construct: 68 kDa; also called human-Her3-ECD; full length Her3 ECD
T3 sequence (P21860 20-643): as the sequence (P21860 20-643 limits assumed, one chain of several) above
Protocol: as §1

human HER1 ECD = human HER1 ECD (human, UniProt P00533 25-645); assay: SPR Biacore T200, antibody captured, 25 C
Protocol: (§2) A Biacore T200 instrument (GE Healthcare) was mounted with a CM5 series sensor. The sensor was normalized in HBS-ET buffer (10 mM HEPES pH 7.4, 150 mM NaCl, 3 mM EDTA, 0.05% w/v Tween 20) according to the manufacturer's instructions. The sample buffer was the system buffer supplemented with 1 mg/ml CMD (Carboxymethyldextran, Sigma #86524). The system operated at 25° C. 6500 RU RAM-Fey (relative units of Fey-fragment RamIgG, GE Healthcare) were immobilized according to the manufacturer's instructions using amine coupling EDC/NHS chemistry on all four flow cells. The sensor was deactivated using 1M ethanolamine. […] Concentration dependent kinetics were measured. […] All analytes were injected for 5 min association time and 10 min dissociation time at 100 μl/min flow rate. The sensor capture system was regenerated by a 3 min injection at 10 μl/min of 10 mM glycine pH 1.7. Where possible kinetic data was evaluated using the Biacore T200 evaluation software.

HER4 ECD-HRG complex = target: T4, HER4 ECD-HRG complex (human, UniProt Q15303 26-651); assay: SPR Biacore T200, antibody captured, 25 C
T4 construct: HER4 ECD preincubated with a 5-fold molar excess of Heregulin; also called HER-4-ECD-RG
T4 sequence 1: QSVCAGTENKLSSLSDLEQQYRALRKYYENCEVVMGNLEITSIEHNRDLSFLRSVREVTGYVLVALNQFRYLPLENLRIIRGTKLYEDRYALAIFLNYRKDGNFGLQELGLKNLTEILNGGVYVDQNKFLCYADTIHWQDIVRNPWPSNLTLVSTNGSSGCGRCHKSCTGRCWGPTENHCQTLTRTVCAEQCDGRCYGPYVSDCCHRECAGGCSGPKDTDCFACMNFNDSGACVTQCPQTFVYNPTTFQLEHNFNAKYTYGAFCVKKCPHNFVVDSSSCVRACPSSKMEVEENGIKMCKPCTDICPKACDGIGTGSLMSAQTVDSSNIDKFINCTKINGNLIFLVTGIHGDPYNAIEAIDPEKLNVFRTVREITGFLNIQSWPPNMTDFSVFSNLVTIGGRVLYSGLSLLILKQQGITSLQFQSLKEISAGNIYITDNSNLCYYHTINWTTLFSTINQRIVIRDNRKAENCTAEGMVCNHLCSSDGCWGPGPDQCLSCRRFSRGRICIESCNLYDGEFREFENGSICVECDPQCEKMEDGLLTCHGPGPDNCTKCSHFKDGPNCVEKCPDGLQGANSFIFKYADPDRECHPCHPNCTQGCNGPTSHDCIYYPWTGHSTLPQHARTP
T4 sequence 2: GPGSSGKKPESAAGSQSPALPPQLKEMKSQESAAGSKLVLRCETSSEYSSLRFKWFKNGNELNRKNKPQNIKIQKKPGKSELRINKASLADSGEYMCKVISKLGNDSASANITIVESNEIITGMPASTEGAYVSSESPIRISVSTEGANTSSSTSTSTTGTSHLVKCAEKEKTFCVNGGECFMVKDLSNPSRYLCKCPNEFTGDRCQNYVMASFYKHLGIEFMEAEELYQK
Protocol: as §2

TtSlyDcys-Her3 = target: T5, TtSlyDcys-Her3; assay: SPR Biacore T200, antibody captured, 25 C
T5 chain: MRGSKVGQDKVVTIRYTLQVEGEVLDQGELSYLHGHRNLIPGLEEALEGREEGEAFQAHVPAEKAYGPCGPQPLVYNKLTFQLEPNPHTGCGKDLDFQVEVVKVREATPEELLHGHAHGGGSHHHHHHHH
Protocol: as §2

HER3 ECD-HRG complex [3] = target: T2, HER3 ECD-HRG complex; assay: SPR Biacore T200, antibody captured, 25 C
Protocol: as §2

[4] = target: T3, human recombinant HER3 ECD; assay: SPR Biacore T200, antibody captured, 25 C
Protocol: as §2

[5] = target: T6, human recombinant HER4 ECD (human, UniProt Q15303 26-651); assay: SPR Biacore T200, antibody captured, 25 C
T6 construct: also called full length Her4 ECD
T6 sequence: T4 sequence 1
Protocol: as §2

TtSlyDcas = target: T7, TtSlyDcas; assay: SPR Biacore T200, antibody captured, 25 C
T7 construct: control scaffold without insert; N-terminal Met may be present or not
T7 chain: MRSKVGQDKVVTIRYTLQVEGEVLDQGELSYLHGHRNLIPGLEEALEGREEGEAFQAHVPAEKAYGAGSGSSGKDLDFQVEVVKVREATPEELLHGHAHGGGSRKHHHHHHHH
Protocol: as §2

B1: anti-HER3/HER4 antibody M-05-74 (antibody, V domains shown)
VH: QVQLQQSGAELAKPGASVKMSCKTSGYTLTDYWIHWVKQRPGQGLEWIGYINPYTGYTESNQKFKDKATLTADKSSNTAYIQLSSLTSEDSAVYYCARPYYYGDYWGQGTTLTVSS
VL: QIVLTQSPAIMSASPGERVTITCSASSSVSYMHWFQQKPGTSPKLLIYSTSNLASGVPARFSGSGSGTSYSLTISRMEAEDAATYYCQQRSSYPFTFGSGTKLEIK
notes: murine monoclonal antibody from hybridoma (supernatant or purified); also called M-074; M-5-74
Binding Late BL (TtSlyD-FKBP-Her3): 68.1 RU | Molar Ratio MR (TtSlyD-FKBP-Her3): 1.5 | Binding Late BL (HER3 ECD-HRG complex [1]): 199 RU | Molar Ratio MR (HER3 ECD-HRG complex [1]): 0.8 | Binding Late BL [2]: 36 RU | Molar Ratio MR [2]: 0.2 | binding result (human HER1 ECD): no binding (tested: 90 nM) | Molar Ratio MR (HER4 ECD-HRG complex): 0.8 | Molar Ratio MR (TtSlyDcys-Her3): 1.9 | Molar Ratio MR (HER3 ECD-HRG complex [3]): 0.8 | Molar Ratio MR [4]: 0.1 | Molar Ratio MR [5]: 0.1 | Molar Ratio MR (TtSlyDcas): 0 | binding result (TtSlyDcas): no binding (tested: 90 nM)
